{"source": "FireProtDB (doi:10.1111/j.1432-1033.1991.tb16033.x)", "proteins": {"B1": {"name": "Ribonuclease HI wild type, P0A7Y4 (protein)", "chain": "MLKQVEIFTDGSCLGNPGPGGYGAILRYRGREKTFSAGYTRTTNNRMELMAAIVALEALKEHCEVILSTDSQYVRQGITQWIHNWKKRGWKTADKKPVKNVDLWQRLDAALGQHQIKWEWVKGHAGHPENERCDELARAAAMNPTLEDTGYQVEV"}}, "settings": "Escherichia coli (strain K12); pH 5.5; 25 °C; GdnHCl; Fluorescence; Sodium acetate 20 mM; NaCl 0.1 M; reversible: yes; whole UniProt chain shown", "data": [{"protein": "B1", "values": [{"measurement": "denaturant m value", "value": 5.17, "unit": "kcal/mol/M"}, {"measurement": "denaturant midpoint (higher = more stable)", "value": 1.79, "unit": "M"}, {"measurement": "unfolding free energy", "value": 9.26, "unit": "kcal/mol"}]}]}
